Test results as given in paper PMC4234207.

Target: T1, GST-FKH-FoxA2 (Rattus norvegicus (rat; cloned from genomic DNA)) (UniProt P32182)
T1 sequence (P32182 145-290, looked up): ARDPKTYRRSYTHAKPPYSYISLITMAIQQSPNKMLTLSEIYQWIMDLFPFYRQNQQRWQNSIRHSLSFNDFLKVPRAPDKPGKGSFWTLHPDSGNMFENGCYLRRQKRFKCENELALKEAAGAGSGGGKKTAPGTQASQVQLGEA
Experiment: EMSA and self-competition
Details: reference probe; 25 mM HEPES pH 7.6, 150 mM KCl, 0.2 mM EDTA, 0.2 mM EGTA, 10% glycerol, 1 mM DTT, 3 ug protein, 1 ng 32P-TTR probe, 2/5/20 ng competitor, on ice 15 min; 4% …

With “CAGTCGAGTTGACTAAGTCAATAATCAGAATCAGTCG (double strand) [TTR]” the binding signal (EMSA score (TTR=1)) was 1.
